In test [1] the target is T1, recombinant MsrA/B (methionine sulfoxide reductase) from N. gonorrhoeae 1291, amino acids 30-522 of SEQ ID NO: 1 (recombinant with 6-His tag SEQ ID NO: 15); tag (Neisseria gonorrhoeae, UniProt P14930, E520K).
T1 construct: 6-His tag (N); thrombin cleavage site (N); made in house; host or cells: E. coli BL21 Star (DE3)pLysS
T1 sequence (P14930 with tags, fused parts or gaps E520K): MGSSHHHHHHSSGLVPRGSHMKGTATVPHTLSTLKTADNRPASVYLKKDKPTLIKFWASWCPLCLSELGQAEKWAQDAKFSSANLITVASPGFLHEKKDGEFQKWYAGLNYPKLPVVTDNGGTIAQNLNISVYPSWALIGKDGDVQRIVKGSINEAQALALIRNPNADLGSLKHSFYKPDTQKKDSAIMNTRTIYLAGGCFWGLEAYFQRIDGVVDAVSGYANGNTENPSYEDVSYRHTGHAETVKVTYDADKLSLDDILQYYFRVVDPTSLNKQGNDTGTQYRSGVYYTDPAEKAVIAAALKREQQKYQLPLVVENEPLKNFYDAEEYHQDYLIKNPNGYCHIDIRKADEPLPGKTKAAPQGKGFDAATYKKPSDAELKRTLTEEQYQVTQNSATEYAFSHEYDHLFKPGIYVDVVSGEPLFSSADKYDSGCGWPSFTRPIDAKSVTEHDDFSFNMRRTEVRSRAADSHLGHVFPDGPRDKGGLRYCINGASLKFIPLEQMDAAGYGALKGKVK
The test can be described thus: Surface plasmon resonance (SPR) affinity assay of Met(O) binding to immobilized MsrA/B. Details: species or system Neisseria gonorrhoeae 1291. To be noted: read-out: KD (equilibrium dissociation constant), Biacore T200, MsrA/B immobilized on CM5 chip, Met(O) 0.16 to 100 nM, single cycle kinetics, absence of serum/antibody. The method, then:
The msr gene was amplified from N. gonorrhoeae 1291 using primers msrexp_NdeIF (5′-[…]-3′; SEQ ID NO:20) and msrexp_XhoIR (5′-[…]-3′; SEQ ID NO:21) and the resulting PCR product was cloned into pET15b to obtain a Msr expression construct pET15bmsr. The construct pET15bmsr was transformed into E. coli BL21 Star (DE3)pLysS host strain (Novagen) and MsrA/B was overexpressed and purified. Briefly, expression was induced by 0.1 mM IPTG at an optical density at 600 nm (OD600) of 0.4 for 24 hr at room temperature. Cell cultures were harvested and the cell pellet was re-suspended in buffer A. Cells were lysed by sonication, centrifuged and the supernatant was applied to a column packed with TALON™ metal affinity resins (Clontech laboratories, Inc). […] Fractions were collected and analyzed by 4-12% NuPAGE® Novex Bis-Tris Gels (Invitrogen) stained with Coomassie Blue, and by Western blot of anti-His polyclonal antisera. […]
SPR assays were performed using a Biacore T200 for affinity analysis and a Pall Pioneer FE for competition assays. […] Data was analyzed using the Biacore T200 evaluation software package. […] Data was collected using the Pioneer Software package and analyzed using Qdat analysis software. The percentage blocking was calculated based on the relative RMax of the Met(O) injection with and without serum, and the serum with and without Met(O). […]
(In general: Surface plasmon resonance follows binding to a sensor surface in real time, without labels.)

In test [2] the test system is whole cell N. gonorrhoeae 1291. The test can be described thus: Whole cell ELISA of mouse antisera against N. gonorrhoeae 1291 strains. In kind it is binding. To be noted: antisera of 5 mice immunized with Freund's adjuvant; for Whole cell ELISA titre to the mutant strain: 1291 msr::kan mutant; for Whole cell ELISA average titre to 1291 Δmsr_C: complemented strain; for Whole cell ELISA average titre to 1291: wild-type 1291. The procedure:
Groups of 10 female BALB/c mice (6 weeks old) were immunized subcutaneously with 5 μg of recombinant MsrA/B with either Alhydrogel® (aluminium hydroxide, InvivoGen) or Freund's (FCA/FIA, Sigma-Aldrich) adjuvant on days 0, 21, and 28. Terminal bleeds were collected on day 42. For Freund's adjuvant, Freund's complete adjuvant (FCA) was used on day 0 and Freund's incomplete adjuvant (FIA) was used in the boosts of day 21 and 28. Pre-bleed of each mouse was collected 4 days before immunization. This study was carried out in accordance with the recommendations of the Australian Code for the Care and Use of Animals for Scientific Purposes, the Griffith University Animal Ethics Committee (AEC). The protocol was approved by the Griffith University AEC.
For whole cell ELISA, bacteria were grown on BHI or GC plates for 16 hr. Cells were harvested and resuspended in PBS at an OD600 of 0.2. Microtitre plate wells were filled with 50 μl of the bacterial suspension and dried at room temperature overnight in the laminar flow cabinet. The bacteria in the dried wells were then heat-killed for 1 hr in 56° C. For recombinant protein ELISA, wells of plates were coated with 100 ng of purified recombinant MsrA/B protein in 100 μl of coating buffer (0.5M carbonate/bicarbonate buffer, pH 9.6) for 1 hr at room temperature. All ELISAs were performed with mouse pre-immune or MsrA/B immunized sera, and secondary antibody as specified in the results (polyclonal anti-mouse Ig HRP (Dako) or IgG1, IgG2a, IgG2b, IgG3 or IgM HRP (Thermofisher Scientific)). The substrate TMB (3,3′, 5,5;-tetramethylbenzidine) solution (Thermofisher Scientific) was used as per manufacture's instruction. Equal amount of 1 N hydrochloric acid was added to stop the reaction. Absorbance was read in a TECAN Model Infinite 200 Pro plate reader at 450 nm.
(In general: ELISA stands for enzyme-linked immunosorbent assay.)

On to `C[S+]([O-])CC[C@H](N)C(=O)O` (stereo partly shown) [Met(O), methionine sulfoxide], for which the Kd in test [1] is 15.4 ± 3.7 nM.

B1: MsrB: recombinant MsrB domain, his-tag removed (SEQ ID NO:31), given to mice with Freund's adjuvant (protein)
chain: GSHMKAATYKKPSDAELKRTLTEEQYQVTQNSATEYAFSHEYDHLFKPGIYVDVVSGEPLFSSADKYDSGCGWPSFTRPIDAKSVTEHDDFSFNMRRTEVRSRAADSHLGHVFPDGPRDKGGLRYCINGASLKFIPLEQMDAAGYGALKGKVK
modifications: Recombinant MsrB
Regarding B1, in test [2], the “Whole cell ELISA titre to the mutant strain” value is listed as 1,000, the “Whole cell ELISA average titre to 1291 Δmsr_C” value is 40,000 and the “Whole cell ELISA average titre to 1291” value is 16,000.

B2: MsrA: recombinant MsrA domain, his-tag removed (SEQ ID NO:28), given to mice with Freund's adjuvant (protein)
chain: GSHMKHSFYKPDTQKKDSAIMNTRTIYLAGGCFWGLEAYFQRIDGVVDAVSGYANGNTENPSYEDVSYRHTGHAETVKVTYDADKLSLDDILQYYFRVVDPTSLNKQGNDTGTQYRSGVYYTDPAEKAVIAAALKREQQKYQLPLVVENEPLKNFYDAEEYHQDYLIKNPNGYCHIDIRKADEPLPG
modifications: Recombinant MsrA
With B2, in test [2], the “Whole cell ELISA titre to the mutant strain” value is on record as 1,000, the “Whole cell ELISA average titre to 1291 Δmsr_C” value is recorded as 20,000 and the “Whole cell ELISA average titre to 1291” value is listed as 10,000.

(Values after US12390517B2, “Compositions, methods and uses for eliciting an immune response” (Griffith University, priority 2018, dated 2025).)
